Laboratory results published in paper PMC4207998 (The Journal of Biological Chemistry, 2014).

Target: T1, monomeric α-toxin (AT) of Staphylococcus aureus, as crystallised (Staphylococcus aureus subsp. aureus …)
T1 chain: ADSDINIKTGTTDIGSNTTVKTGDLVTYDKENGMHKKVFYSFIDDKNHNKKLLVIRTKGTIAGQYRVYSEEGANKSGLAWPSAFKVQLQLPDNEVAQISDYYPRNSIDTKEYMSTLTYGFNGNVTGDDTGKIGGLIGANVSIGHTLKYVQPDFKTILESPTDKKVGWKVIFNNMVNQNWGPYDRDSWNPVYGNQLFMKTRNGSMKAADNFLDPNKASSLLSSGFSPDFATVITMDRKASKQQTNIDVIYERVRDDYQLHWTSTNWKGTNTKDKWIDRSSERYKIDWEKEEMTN
Assay: crystal structure
Settings: both partners purified

B1: MEDI4893 Fab (Fab, V domains shown)
VH: EVQLVESGGGLVQPGGSLRLSCAASGFTFSSHDMHWVRQATGKGLEWVSGIGTAGDTYYPDSVKGRFTISRENAKNSLYLQMNSLRAGDTAVYYCARDRYSPTGHYYGMDVWGQGTTVTVSS
VL: DIQMTQSPSTLSASVGDRVTITCRASQSISSWLAWYQQKPGKAPKLLIYKASSLESGVPSRFSGSGSGTEFTLTISSLQPDDFATYYCKQYADYWTFGQGTKVEIK
binding result: binds
